# Data as given in article PMC7610691 (Nature structural & molecular biology, 2020).
# T1: Smc4 (S. cerevisiae condensin subunit) (S. cerevisiae, UniProt Q12267 1-1418)
# T1 sequence: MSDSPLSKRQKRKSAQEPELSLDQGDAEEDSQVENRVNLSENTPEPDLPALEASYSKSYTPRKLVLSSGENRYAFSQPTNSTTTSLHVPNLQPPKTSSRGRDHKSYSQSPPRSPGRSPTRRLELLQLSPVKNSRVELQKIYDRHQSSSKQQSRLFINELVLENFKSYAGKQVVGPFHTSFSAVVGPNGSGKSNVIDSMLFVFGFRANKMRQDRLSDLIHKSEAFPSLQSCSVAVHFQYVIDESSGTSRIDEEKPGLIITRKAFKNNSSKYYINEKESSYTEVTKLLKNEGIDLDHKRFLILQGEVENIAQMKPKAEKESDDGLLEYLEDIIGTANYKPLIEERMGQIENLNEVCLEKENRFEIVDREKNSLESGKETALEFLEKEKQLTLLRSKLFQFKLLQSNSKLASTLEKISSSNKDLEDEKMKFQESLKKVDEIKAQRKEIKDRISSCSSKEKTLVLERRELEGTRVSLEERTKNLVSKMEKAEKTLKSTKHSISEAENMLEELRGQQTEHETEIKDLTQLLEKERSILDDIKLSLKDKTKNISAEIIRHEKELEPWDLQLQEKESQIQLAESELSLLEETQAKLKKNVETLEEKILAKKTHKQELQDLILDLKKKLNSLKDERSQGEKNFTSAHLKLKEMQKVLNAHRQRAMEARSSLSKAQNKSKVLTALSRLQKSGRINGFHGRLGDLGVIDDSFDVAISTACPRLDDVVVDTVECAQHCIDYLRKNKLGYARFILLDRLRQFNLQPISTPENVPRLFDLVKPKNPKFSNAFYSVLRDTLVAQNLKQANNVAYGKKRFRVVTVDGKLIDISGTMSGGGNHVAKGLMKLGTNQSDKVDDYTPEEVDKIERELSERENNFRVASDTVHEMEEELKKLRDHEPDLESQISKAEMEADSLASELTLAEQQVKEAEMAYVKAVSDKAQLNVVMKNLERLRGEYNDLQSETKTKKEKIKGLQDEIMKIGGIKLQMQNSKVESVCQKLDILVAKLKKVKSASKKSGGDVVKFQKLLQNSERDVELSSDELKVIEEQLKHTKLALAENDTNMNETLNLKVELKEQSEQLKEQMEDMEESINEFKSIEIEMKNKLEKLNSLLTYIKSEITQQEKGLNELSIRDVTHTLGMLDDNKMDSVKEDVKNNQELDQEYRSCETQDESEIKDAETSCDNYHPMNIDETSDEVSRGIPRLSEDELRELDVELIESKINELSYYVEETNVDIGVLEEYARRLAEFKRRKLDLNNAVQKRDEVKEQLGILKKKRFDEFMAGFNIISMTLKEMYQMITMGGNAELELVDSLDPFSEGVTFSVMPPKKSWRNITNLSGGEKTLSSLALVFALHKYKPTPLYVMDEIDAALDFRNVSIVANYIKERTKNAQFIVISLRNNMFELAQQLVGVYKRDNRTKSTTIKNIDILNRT
# T2: Ycs4 (S. cerevisiae condensin HEAT-repeat subunit) (S. cerevisiae, UniProt Q06156 1-1176)
# T2 sequence: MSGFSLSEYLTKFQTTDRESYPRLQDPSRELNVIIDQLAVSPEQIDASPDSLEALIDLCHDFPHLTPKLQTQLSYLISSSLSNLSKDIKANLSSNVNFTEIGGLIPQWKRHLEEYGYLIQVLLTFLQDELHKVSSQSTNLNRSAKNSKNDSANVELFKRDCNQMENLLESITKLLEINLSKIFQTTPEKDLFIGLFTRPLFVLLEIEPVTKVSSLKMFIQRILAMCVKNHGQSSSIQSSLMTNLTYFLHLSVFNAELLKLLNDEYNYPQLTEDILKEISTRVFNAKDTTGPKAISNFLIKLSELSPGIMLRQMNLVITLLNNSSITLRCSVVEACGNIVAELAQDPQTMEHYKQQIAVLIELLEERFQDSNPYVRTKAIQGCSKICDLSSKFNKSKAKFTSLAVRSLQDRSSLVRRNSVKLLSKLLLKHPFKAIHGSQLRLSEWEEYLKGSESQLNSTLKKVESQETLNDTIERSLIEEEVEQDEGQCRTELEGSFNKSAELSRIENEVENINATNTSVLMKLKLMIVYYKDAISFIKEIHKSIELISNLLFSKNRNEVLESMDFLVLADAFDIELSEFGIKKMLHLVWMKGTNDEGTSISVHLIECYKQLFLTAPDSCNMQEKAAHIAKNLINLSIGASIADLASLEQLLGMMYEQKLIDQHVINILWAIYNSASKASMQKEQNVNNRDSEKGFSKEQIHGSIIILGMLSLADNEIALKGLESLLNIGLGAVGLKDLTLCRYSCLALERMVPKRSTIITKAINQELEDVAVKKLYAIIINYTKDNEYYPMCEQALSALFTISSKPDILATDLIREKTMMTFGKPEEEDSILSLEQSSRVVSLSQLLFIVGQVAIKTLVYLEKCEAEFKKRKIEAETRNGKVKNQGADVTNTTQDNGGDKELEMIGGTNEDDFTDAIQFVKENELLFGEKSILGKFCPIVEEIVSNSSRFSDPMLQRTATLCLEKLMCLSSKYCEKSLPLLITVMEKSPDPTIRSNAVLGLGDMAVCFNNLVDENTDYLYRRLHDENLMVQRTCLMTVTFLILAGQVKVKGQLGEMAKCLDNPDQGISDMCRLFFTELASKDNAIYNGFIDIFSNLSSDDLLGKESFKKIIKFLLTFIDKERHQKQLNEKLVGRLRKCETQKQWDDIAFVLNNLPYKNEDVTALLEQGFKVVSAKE
# B1: Smc2 (S. cerevisiae condensin subunit) (natural protein)
# chain: MKVEELIIDGFKSYATRTVITDWDPQFNAITGLNGSGKSNILDAICFVLGIASMSTVRASSLQDLIYKRGQAGVTKASVTIVFDNTDKSNSPIGFTNSPQISVTRQVVLGGTSKYLINGHRAPQQSVLQLFQSVQLNINNPNFLIMQGKITKVLNMKPSEILSLIEEAAGTKMFEDRREKAERTMSKKETKLQENRTLLTEEIEPKLEKLRNEKRMFLEFQSTQTDLEKTERIVVSYEYYNIKHKHTSIRETLENGETRMKMLNEFVKKTSEEIDSLNEDVEEIKLQKEKELHKEGTISKLENKENGLLNEISRLKTSLSIKVENLNDTTEKSKALESEIASSSAKLIEKKSAYANTEKDYKMVQEQLSKQRDLYKRKEELVSTLTTGISSTGAADGGYNAQLAKAKTELNEVSLAIKKSSMKMELLKKELLTIEPKLKEATKDNELNVKHVKQCQETCDKLRARLVEYGFDPSRIKDLKQREDKLKSHYYQTCKNSEYLKRRVTNLEFNYTKPYPNFEASFVHGVVGQLFQIDNDNIRYATALQTCAGGRLFNVVVQDSQTATQLLERGRLRKRVTIIPLDKIYTRPISSQVLDLAKKIAPGKVELAINLIRFDESITKAMEFIFGNSLICEDPETAKKITFHPKIRARSITLQGDVYDPEGTLSGGSRNTSESLLVDIQKYNQIQKQIETIQADLNHVTEELQTQYATSQKTKTIQSDLNLSLHKLDLAKRNLDANPSSQIIARNEEILRDIGECENEIKTKQMSLKKCQEEVSTIEKDMKEYDSDKGSKLNELKKELKLLAKELEEQESESERKYDLFQNLELETEQLSSELDSNKTLLHNHLKSIESLKLENSDLEGKIRGVEDDLVTVQTELNEEKKRLMDIDDELNELETLIKKKQDEKKSSELELQKLVHDLNKYKSNTNNMEKIIEDLRQKHEFLEDFDLVRNIVKQNEGIDLDTYRERSKQLNEKFQELRKKVNPNIMNMIENVEKKEAALKTMIKTIEKDKMKIQETISKLNEYKRETLVKTWEKVTLDFGNIFADLLPNSFAKLVPCEGKDVTQGLEVKVKLGNIWKESLIELSGGQRSLIALSLIMALLQFRPAPMYILDEVDAALDLSHTQNIGHLIKTRFKGSQFIVVSLKEGMFANANRVFRTRFQDGTSVVSIM
# How the values were obtained:
# [1] = biological target: T1, Smc4 (S. cerevisiae condensin subunit); test: cryo-EM structure
# [2] = biological target: T2, Ycs4 (S. cerevisiae condensin …); test: cross-linking
# [3] = biological target: B1; test: cryo-EM structure
binding result [1],binding result [2],binding result [3],Binder
binds,binds,–,B1
–,–,binds,Ycg1 (S. cerevisiae condensin HEAT-repeat subunit) (natural protein) MQDPDGIDINTKIFNSVAEVFQKAQGSYAGHRKHIAVLKKIQSKAVEQGYEDAFNFWFDKLVTKILPLKKNEIIGDRIVKLVAAFIASLERELILAKKQNYKLTNDEEGIFSRFVDQFIRHVLRGVESPDKNVRFRVLQLLAVIMDNIGEIDESLFNLLILSLNKRIYDREPTVRIQAVFCLTKFQDEEQTEHLTELSDNEENFEATRTLVASIQNDPSAEVRRAAMLNLINDNNTRPYILERARDVNIVNRRLVYSRILKSMGRKCFDDIEPHIFDQLIEWGLEDRELSVRNACKRLIAHDWLNALDGDLIELLEKLDVSRSSVCVKAIEALFQSRPDILSKIKFPESIWKDFTVEIAFLFRAIYLYCLDNNITEMLEENFPEASKLSEHLNHYILLRYHHNDISNDSQSHFDYNTLEFIIEQLSIAAERYDYSDEVGRRSMLTVVRNMLALTTLSEPLIKIGIRVMKSLSINEKDFVTMAIEIINDIRDDDIEKQEQEEKIKSKKINRRNETSVDEEDENGTHNDEVNEDEEDDNISSFHSAVENLVQGNGNVSESDIINNLPPEKEASSATIVLCLTRSSYMLELVNTPLTENILIASLMDTLITPAVRNTAPNIRELGVKNLGLCCLLDVKLAIDNMYILGMCVSKGNASLKYIALQVIVDIFSVHGNTVVDGEGKVDSISLHKIFYKVLKNNGLPECQVIAAEGLCKLFLADVFTDDDLFETLVLSYFSPINSSNEALVQAFAFCIPVYCFSHPAHQQRMSRTAADILLRLCVLWDDLQSSVIPEVDREAMLKPNIIFQQLLFWTDPRNLVNQTGSTKKDTVQLTFLIDVLKIYAQIEKKEIKKMIITNINAIFLSSEQDYSTLKELLEYSDDIAENDNLDNVSKNALDKLRNNLNSLIEEINERSETQTKDENNTANDQYSSILGNSFNKSSNDTIEHAADITDGNNTELTKTTVNISAVDNTTEQSNSRKRTRSEAEQIDTSKNLENMSIQDTSTVAKNVSFVLPDEKSDAMSIDEEDKDSESFSEVC
